What was measured:
Test in all cases: crystal structure; TG3 form mixed with Fab DH63-B02 at 1:1.1 molar ratio, complex purified by SEC; crystals in 0.1 M HEPES-MOPS pH 7.1, 16-22% ethylene glycol, 8-11% PEG 8000, 6-10 mM CaCl2, 3-10 mM MgCl2; three Ca2+ bound
Conditions in all cases: both partners purified
[1] = biological target: T1, zymogen transglutaminase 3 (TG3), human recombinant (Homo sapiens, UniProt Q08188)
T1 construct: human transglutaminase 3, uncleaved zymogen (79 kDa), with N-terminal, catalytic core, C1 and C2 domains; the loop 461-473 is intact; also called TG3 zymogen; zymogen TG3; source: Sf9 insect cells, purified (Ni-NTA)

[2] = biological target: T2, dispase-cleaved TG3 (N-terminal and core domains with C1C2 non-covalently associated) (Homo sapiens, UniProt Q08188)
T2 construct: human transglutaminase 3, N-terminal and catalytic core domains (N-core, 51 kDa) left by dispase cleavage in the loop 461-473; human transglutaminase 3, the two C-terminal beta-barrel domains C1C2 (26 kDa) left by dispase cleavage in the loop 461-473; TG3 was His-tagged before cleavage; source: Sf9 insect cells, purified (Ni-NTA); cleaved with dispase I, SEC

[3] = biological target: T3, Z-DON-associated TG3 without C1C2 (enzyme-substrate intermediate conformer) (human, UniProt Q08188, Cys273 alkylated by Z-DON (Z-DON-Val-Pro-Leu-OMe))
T3 construct: human transglutaminase 3, N-terminal and catalytic core domains (N-core, 51 kDa) left by cleavage in the loop 461-473; TG3 was His-tagged before cleavage; The cleavage sites of dispase and cathepsin L may differ; also called cleaved TG3 + Z-DON; source: Sf9 insect cells, purified (Ni-NTA); cleaved with dispase I or cathepsin L, incubated with Z-DON, SEC

[4] = biological target: T4, N-terminal and core domains (N-core) of cleaved TG3 (Homo sapiens, UniProt Q08188)
T4 construct: human transglutaminase 3, N-terminal and catalytic core domains (N-core, 51 kDa) left by cleavage in the loop 461-473; also called catalytic core domain; catalytic domain; source: Sf9 insect cells, purified (Ni-NTA); cleaved with dispase I or cathepsin L, SEC

Measured: binding result

T4 sequence (Q08188 whole entry, the tested form may be a part): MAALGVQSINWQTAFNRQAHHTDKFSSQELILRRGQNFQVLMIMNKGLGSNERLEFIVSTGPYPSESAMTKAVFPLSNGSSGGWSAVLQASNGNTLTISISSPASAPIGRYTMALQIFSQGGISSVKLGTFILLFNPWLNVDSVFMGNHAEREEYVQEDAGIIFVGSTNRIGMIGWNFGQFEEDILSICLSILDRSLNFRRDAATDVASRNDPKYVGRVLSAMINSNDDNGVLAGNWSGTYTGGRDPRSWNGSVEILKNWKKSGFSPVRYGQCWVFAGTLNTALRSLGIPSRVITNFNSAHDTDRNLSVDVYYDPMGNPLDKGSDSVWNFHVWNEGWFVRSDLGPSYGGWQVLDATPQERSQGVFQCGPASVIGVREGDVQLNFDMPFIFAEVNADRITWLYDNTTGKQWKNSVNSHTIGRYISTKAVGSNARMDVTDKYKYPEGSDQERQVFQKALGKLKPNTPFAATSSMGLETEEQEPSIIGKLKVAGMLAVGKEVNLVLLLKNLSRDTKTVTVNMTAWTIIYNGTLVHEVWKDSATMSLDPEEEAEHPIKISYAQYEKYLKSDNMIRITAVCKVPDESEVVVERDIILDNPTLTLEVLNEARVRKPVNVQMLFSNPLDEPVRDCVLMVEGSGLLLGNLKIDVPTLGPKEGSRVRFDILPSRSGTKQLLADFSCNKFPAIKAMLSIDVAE
T2 sequence (Q08188 whole entry, chain 1 of 2, the tested form may be a part): as the sequence (Q08188 whole entry, the tested form may be a part) above
T2 sequence (Q08188 whole entry, chain 2 of 2, the tested form may be a part): as the sequence (Q08188 whole entry, the tested form may be a part) above
T1 sequence (Q08188 whole entry, the tested form may be a part): as above
T3 sequence (Q08188 2-461): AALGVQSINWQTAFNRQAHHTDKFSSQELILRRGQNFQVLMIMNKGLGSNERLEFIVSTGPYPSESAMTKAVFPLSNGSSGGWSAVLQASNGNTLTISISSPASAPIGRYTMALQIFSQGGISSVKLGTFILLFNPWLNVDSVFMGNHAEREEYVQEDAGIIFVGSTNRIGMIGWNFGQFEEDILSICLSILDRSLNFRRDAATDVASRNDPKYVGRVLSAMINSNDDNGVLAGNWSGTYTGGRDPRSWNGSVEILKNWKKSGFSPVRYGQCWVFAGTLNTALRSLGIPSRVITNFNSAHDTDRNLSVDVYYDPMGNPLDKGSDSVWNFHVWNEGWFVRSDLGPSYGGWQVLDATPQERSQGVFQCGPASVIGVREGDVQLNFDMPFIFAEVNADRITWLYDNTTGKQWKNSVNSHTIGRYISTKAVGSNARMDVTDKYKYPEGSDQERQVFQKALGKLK

B1: Fab fragment of the anti-TG3 antibody DH63-B02 (Fab, V domains shown)
VH: EVQLVESGGGLVQPGRSLRLSCTASGFTFDDYAMHWVRQAPGKGLEWVSRISWNSRSIAYADSVKGRFTISRDSAKNSLYLQMNSLRTEDTALYYCAKDHYLGSDSYGMDVWGQGTTVTVSS
VL: NFMLTQPHSVSESPGKTVTISCTRSSGSIDSNYVQWYQQRPGSAPTIVIHEDNQRPSGVPDRFSGSIDTSSNSASLTISGLKTEDEADYYCQSYDPSNVVFGGGTKLTVL
notes: Fab heavy chain of the human antibody DH63-B02 from a dermatitis herpetiformis patient; Fab light chain of DH63-B02, purified on a resin for human lambda light chains; also called Fab DH63-B02; the Fab
binds: all assays above
